# Reference: IntAct's records for PubMed 36376753
# B1: SNF1-related protein kinase catalytic subunit alpha KIN10 (Arabidopsis thaliana (Mouse-ear cress)), Q38997 (parent)
# chain: MDGSGTGSRSGVESILPNYKLGRTLGIGSFGRVKIAEHALTGHKVAIKILNRRKIKNMEMEEKVRREIKILRLFMHPHIIRLYEVIETPTDIYLVMEYVNSGELFDYIVEKGRLQEDEARNFFQQIISGVEYCHRNMVVHRDLKPENLLLDSKCNVKIADFGLSNIMRDGHFLKTSCGSPNYAAPEVISGKLYAGPEVDVWSCGVILYALLCGTLPFDDENIPNLFKKIKGGIYTLPSHLSPGARDLIPRMLVVDPMKRVTIPEIRQHPWFQAHLPRYLAVPPPDTVQQAKKIDEEILQEVINMGFDRNHLIESLRNRTQNDGTVTYYLILDNRFRASSGYLGAEFQETMEGTPRMHPAESVASPVSHRLPGLMEYQGVGLRSQYPVERKWALGLQSRAHPREIMTEVLKALQDLNVCWKKIGHYNMKCRWVPNSSADGMLSNSMHDNNYFGDESSIIENEAAVKSPNVVKFEIQLYKTRDDKYLLDLQRVQGPQFLFLDLCAAFLAQLRVL
# partner: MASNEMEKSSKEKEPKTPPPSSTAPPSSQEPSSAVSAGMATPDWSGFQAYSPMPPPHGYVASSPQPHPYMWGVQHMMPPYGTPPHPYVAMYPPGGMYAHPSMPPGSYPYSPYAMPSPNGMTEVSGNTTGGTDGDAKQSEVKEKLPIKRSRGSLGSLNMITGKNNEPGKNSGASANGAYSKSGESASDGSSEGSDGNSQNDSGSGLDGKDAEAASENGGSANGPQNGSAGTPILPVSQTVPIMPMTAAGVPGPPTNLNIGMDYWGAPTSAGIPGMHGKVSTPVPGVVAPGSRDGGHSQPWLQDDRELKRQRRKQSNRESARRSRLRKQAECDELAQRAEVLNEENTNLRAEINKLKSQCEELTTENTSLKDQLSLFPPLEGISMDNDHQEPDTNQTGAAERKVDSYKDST
# B2: SNF1-related protein kinase catalytic subunit alpha KIN10 (Arabidopsis thaliana (Mouse-ear cress)), Q38997 (parent)
# chain: B1 chain
# partner: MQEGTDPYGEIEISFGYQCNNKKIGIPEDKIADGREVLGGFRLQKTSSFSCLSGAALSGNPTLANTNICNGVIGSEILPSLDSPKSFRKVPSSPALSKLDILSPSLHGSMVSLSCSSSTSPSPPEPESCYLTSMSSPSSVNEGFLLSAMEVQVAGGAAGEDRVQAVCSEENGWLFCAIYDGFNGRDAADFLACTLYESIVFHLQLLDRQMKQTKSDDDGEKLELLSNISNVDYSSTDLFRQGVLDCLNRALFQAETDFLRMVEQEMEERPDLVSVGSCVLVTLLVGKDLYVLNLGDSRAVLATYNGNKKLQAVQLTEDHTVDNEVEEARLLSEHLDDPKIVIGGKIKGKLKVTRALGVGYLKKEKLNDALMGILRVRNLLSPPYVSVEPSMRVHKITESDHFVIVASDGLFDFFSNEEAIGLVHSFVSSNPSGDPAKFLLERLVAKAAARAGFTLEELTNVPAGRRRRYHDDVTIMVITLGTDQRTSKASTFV
# B3: SNF1-related protein kinase catalytic subunit alpha KIN10 (Arabidopsis thaliana (Mouse-ear cress)), Q38997 (parent)
# chain: B1 chain
# partner: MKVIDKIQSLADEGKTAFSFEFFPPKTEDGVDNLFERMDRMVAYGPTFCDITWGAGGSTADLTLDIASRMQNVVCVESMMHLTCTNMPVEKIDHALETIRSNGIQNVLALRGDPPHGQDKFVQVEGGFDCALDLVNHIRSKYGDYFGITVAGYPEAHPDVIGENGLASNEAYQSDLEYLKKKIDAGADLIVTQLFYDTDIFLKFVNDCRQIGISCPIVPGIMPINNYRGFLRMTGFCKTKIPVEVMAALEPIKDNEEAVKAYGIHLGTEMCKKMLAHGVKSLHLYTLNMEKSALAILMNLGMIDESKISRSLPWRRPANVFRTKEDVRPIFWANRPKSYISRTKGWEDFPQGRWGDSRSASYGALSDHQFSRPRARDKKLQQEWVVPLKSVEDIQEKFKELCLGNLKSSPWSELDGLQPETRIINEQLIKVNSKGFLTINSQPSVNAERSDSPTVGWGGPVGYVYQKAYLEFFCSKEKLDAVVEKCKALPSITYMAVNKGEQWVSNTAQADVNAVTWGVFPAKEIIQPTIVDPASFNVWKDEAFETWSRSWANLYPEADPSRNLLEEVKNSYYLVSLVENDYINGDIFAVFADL
# B4: SNF1-related protein kinase catalytic subunit alpha KIN10 (Arabidopsis thaliana (Mouse-ear cress)), Q38997 (parent)
# chain: B1 chain
# partner: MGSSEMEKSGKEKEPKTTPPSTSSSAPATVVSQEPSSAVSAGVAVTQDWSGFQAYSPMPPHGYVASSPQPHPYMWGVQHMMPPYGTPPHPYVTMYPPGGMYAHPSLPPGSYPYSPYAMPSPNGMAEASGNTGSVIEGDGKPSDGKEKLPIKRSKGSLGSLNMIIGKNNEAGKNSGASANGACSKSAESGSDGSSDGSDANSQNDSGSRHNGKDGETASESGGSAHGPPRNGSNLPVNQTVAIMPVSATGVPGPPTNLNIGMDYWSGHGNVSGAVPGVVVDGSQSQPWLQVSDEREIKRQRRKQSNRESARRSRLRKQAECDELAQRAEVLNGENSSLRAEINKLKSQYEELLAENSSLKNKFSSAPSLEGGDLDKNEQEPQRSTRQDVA
# Variants of: B1
# Settings: with bzp16_arath BZIP16, Q501B2
row,effect of a mutation on the interaction,Variant
1,disrupting interaction strength,MDGSGTGSRSGVESILPNYKLGRTLGIGSFGRVKIAEHALTGHKVAIMILNRRKIKNMEMEEKVRREIKILRLFMHPHIIRLYEVIETPTDIYLVMEYVNSGELFDYIVEKGRLQEDEARNFFQQIISGVEYCHRNMVVHRDLKPENLLLDSKCNVKIADFGLSNIMRDGHFLKTSCGSPNYAAPEVISGKLYAGPEVDVWSCGVILYALLCGTLPFDDENIPNLFKKIKGGIYTLPSHLSPGARDLIPRMLVVDPMKRVTIPEIRQHPWFQAHLPRYLAVPPPDTVQQAKKIDEEILQEVINMGFDRNHLIESLRNRTQNDGTVTYYLILDNRFRASSGYLGAEFQETMEGTPRMHPAESVASPVSHRLPGLMEYQGVGLRSQYPVERKWALGLQSRAHPREIMTEVLKALQDLNVCWKKIGHYNMKCRWVPNSSADGMLSNSMHDNNYFGDESSIIENEAAVKSPNVVKFEIQLYKTRDDKYLLDLQRVQGPQFLFLDLCAAFLAQLRVL [K48M]

# Variants of: B2
# Settings: with p2c40, Q9LUS8
row,effect of a mutation on the interaction,Variant
1,disrupting interaction strength,MDGSGTGSRSGVESILPNYKLGRTLGIGSFGRVKIAEHALTGHKVAIMILNRRKIKNMEMEEKVRREIKILRLFMHPHIIRLYEVIETPTDIYLVMEYVNSGELFDYIVEKGRLQEDEARNFFQQIISGVEYCHRNMVVHRDLKPENLLLDSKCNVKIADFGLSNIMRDGHFLKTSCGSPNYAAPEVISGKLYAGPEVDVWSCGVILYALLCGTLPFDDENIPNLFKKIKGGIYTLPSHLSPGARDLIPRMLVVDPMKRVTIPEIRQHPWFQAHLPRYLAVPPPDTVQQAKKIDEEILQEVINMGFDRNHLIESLRNRTQNDGTVTYYLILDNRFRASSGYLGAEFQETMEGTPRMHPAESVASPVSHRLPGLMEYQGVGLRSQYPVERKWALGLQSRAHPREIMTEVLKALQDLNVCWKKIGHYNMKCRWVPNSSADGMLSNSMHDNNYFGDESSIIENEAAVKSPNVVKFEIQLYKTRDDKYLLDLQRVQGPQFLFLDLCAAFLAQLRVL [K48M]

# Variants of: B3
# Settings: with mthr2_arath MTHFR2, O80585
row,effect of a mutation on the interaction,Variant
1,disrupting interaction strength,MDGSGTGSRSGVESILPNYKLGRTLGIGSFGRVKIAEHALTGHKVAIMILNRRKIKNMEMEEKVRREIKILRLFMHPHIIRLYEVIETPTDIYLVMEYVNSGELFDYIVEKGRLQEDEARNFFQQIISGVEYCHRNMVVHRDLKPENLLLDSKCNVKIADFGLSNIMRDGHFLKTSCGSPNYAAPEVISGKLYAGPEVDVWSCGVILYALLCGTLPFDDENIPNLFKKIKGGIYTLPSHLSPGARDLIPRMLVVDPMKRVTIPEIRQHPWFQAHLPRYLAVPPPDTVQQAKKIDEEILQEVINMGFDRNHLIESLRNRTQNDGTVTYYLILDNRFRASSGYLGAEFQETMEGTPRMHPAESVASPVSHRLPGLMEYQGVGLRSQYPVERKWALGLQSRAHPREIMTEVLKALQDLNVCWKKIGHYNMKCRWVPNSSADGMLSNSMHDNNYFGDESSIIENEAAVKSPNVVKFEIQLYKTRDDKYLLDLQRVQGPQFLFLDLCAAFLAQLRVL [K48M]

# Variants of: B4
# Settings: with bzp68_arath BZIP68, Q84LG2
row,effect of a mutation on the interaction,Variant
1,disrupting interaction strength,MDGSGTGSRSGVESILPNYKLGRTLGIGSFGRVKIAEHALTGHKVAIMILNRRKIKNMEMEEKVRREIKILRLFMHPHIIRLYEVIETPTDIYLVMEYVNSGELFDYIVEKGRLQEDEARNFFQQIISGVEYCHRNMVVHRDLKPENLLLDSKCNVKIADFGLSNIMRDGHFLKTSCGSPNYAAPEVISGKLYAGPEVDVWSCGVILYALLCGTLPFDDENIPNLFKKIKGGIYTLPSHLSPGARDLIPRMLVVDPMKRVTIPEIRQHPWFQAHLPRYLAVPPPDTVQQAKKIDEEILQEVINMGFDRNHLIESLRNRTQNDGTVTYYLILDNRFRASSGYLGAEFQETMEGTPRMHPAESVASPVSHRLPGLMEYQGVGLRSQYPVERKWALGLQSRAHPREIMTEVLKALQDLNVCWKKIGHYNMKCRWVPNSSADGMLSNSMHDNNYFGDESSIIENEAAVKSPNVVKFEIQLYKTRDDKYLLDLQRVQGPQFLFLDLCAAFLAQLRVL [K48M]
